# According to patent US20080118508A1 (published 2008):
# B1: human C5a (ligand, UniProt P01031 678-751, looked up)
# chain: TLQKKIEEIAAKYKHSVVKKCCYDGACVNNDETCEQRAARISLGPRCIKAFTECCVVASQLRANISHKDMQLGR
# notes: domain: C5a; Bought recombinant protein; also called recombinant C5a (Sigma); purified recombinant human C5a
# Biological target: T1, human C5a receptor (C5aR) on purified human neutrophils (human, UniProt P21730 1-350)
# T1 construct: whole, on cells
# T1 sequence (looked up): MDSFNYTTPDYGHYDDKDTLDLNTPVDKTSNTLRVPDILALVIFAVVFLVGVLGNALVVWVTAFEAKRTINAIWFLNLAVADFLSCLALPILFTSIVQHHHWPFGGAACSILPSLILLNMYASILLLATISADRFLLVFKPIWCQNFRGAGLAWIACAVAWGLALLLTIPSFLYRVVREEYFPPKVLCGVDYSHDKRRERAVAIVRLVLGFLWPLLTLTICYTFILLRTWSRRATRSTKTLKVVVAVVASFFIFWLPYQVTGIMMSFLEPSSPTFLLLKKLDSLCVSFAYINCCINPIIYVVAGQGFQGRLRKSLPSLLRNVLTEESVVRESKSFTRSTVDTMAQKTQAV
# Assay: displacement of 125I-C5a from purified human neutrophils by unlabeled recombinant human C5a
# Procedure: MAb137-26 was serially diluted in 1.5 ml Eppendorf centrifuged tubes with a binding buffer (1% BSA in RPMI1640 medium) to give final concentrations ranging from 640 nM to 0.04 nM. […] Purified recombinant human C5a (Sigma, St. Louis, Mo. was used as positive control, whereas an isotype-matched irrelevant monoclonal antibody was used as negative control. For the maximum binding of ¹²⁵I-C5a, 36 μl of the binding buffer without the antibodies or C5a was used instead. Fifty microliters of the neutrophil suspension was added to each tube for incubation on ice. At the end of the 40-minute incubation period, the mixture from each tube was transferred to the top of 800 μl of a separation buffer (6% BSA in PBS) in another Eppendorf tube. The tubes were than centrifuged at 2000×g for 3 minutes at room temperature. After the supernatant was aspirated, the cell pellet was re-suspended in 0.5 ml of de-ionized water to lyse the cells. The cell lysate was then mixed with 3 ml of Ultima Gold scintillation fluid (Packard Instrument, Meriden, Conn.) for radioactive counting. The percent inhibition of ¹²⁵I-C5a binding is defined as: [Cpmₘₐₓ−Cpmbkg]−[Cpmca−Cpmbkg]/[Cpmₘₐₓ−Cpmbkg]×100 where: Cpmₘₐₓ=maximum count per minute without competing agents; Cpmbkg=background cpm without addition of ¹²⁵I-C5a; and Cpmca=cpm with competing agents.
binder,measurement,value
B1,IC50,30 nM
